Experimental data taken from article PMC2120718.

Assay: flow cytometry of surface TCR, anti-CD3 epsilon UCHT1
Conditions: glycan lost; control: JGN transfected with wild-type CD3 gamma

**Q.** For CD3 gamma: N30Q, which expression_or_secretion is on record?
**A.** Its expression_or_secretion is “no change”.

**Q.** With CD3 gamma: N70Q as the substance, how does the expression_or_secretion read?
**A.** Its expression_or_secretion is “no change”.
